# T1: μ-opioid receptor (rat (endogenous in rat brain)), P33535
# T1 chain: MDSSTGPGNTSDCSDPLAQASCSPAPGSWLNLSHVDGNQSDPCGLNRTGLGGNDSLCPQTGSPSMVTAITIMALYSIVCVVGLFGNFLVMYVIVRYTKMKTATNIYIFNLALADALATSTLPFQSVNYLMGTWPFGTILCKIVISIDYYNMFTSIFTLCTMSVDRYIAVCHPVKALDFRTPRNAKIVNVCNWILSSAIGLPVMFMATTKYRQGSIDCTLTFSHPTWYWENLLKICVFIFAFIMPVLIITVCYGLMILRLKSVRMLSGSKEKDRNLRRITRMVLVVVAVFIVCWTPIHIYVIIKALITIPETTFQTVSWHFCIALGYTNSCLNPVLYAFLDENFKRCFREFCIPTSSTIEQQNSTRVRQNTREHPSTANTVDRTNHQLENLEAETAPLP
# B1: endomorphin-2 (EM-2) (peptide)
# chain: YPFF
# modifications: not checked
# Target: T1, μ-opioid receptor (rat (endogenous in …))
# Experiment: radioligand binding; displacement of [^3H]DAMGO from rat brain membrane homogenate by unlabelled ligand (10^-10 to 10^-5 M); 50 mM Tris-HCl pH 7.4, 35 °C, 45 min; non-specific binding with 10 μM naloxone; IC50 converted into Ki by Cheng-Prusoff, one site competition fit
binder,measurement,value
B1,Ki,3.16 nM
